This assay addresses glucagon receptor (UniProt P47871). Kind of assay: cell-based or functional assay.

Sequence of glucagon receptor (P47871 26-477 limits assumed): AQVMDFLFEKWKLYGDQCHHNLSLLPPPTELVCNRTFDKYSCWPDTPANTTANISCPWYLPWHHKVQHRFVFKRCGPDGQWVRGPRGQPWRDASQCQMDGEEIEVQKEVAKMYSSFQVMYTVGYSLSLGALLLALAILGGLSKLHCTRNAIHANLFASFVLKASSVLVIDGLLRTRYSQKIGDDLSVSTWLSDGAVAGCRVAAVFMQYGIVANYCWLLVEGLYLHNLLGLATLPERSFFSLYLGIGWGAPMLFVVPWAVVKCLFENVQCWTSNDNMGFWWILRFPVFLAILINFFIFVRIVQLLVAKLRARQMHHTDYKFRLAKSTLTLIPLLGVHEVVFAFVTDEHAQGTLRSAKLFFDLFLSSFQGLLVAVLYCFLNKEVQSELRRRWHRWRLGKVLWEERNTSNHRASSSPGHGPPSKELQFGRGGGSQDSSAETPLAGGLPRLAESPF

In the case of Liraglutide (peptide), the % relative activity was found to be 0.04%.

These data come from patent US20120172295A1.
